Experimental data published in publication PMC6803640, “Oligomeric state, hydrodynamic properties and target recognition of human Calcium and Integrin Binding protein 2 (CIB2)” (Scientific Reports, 2019).

Legend:
[1] = Dynamic light scattering; format: physicochemical; details: 37 °C, fractions eluted from SEC (CIB2 A2 band), mean ± SEM; n = 15 (CIB2), 18 (Rec), 30 (CaM); 1.8 µM CIB2, 11 µM Rec, 7.4 µM CaM
Procedure: DLS measurements were performed using Zetasizer Nano-S (Malvern Instruments) at 37 °C by setting the same parameters for hydrodynamic diameter estimation as in ref.[26]. The estimation was based on 15–30 measurements, each consisting of at least 13 repetitions; data in Table 1 are reported as mean ± standard error of mean (SEM). DLS samples for each protein are the same collected in the Analytical Size Exclusion Chromatography.
His-tagged proteins, and then blocked via amine coupling as explained above. Preparation of the […]
approximately 2250 RU of CIB2 immobilized. In binding experiments, peptide concentration was varied in the 230 nM- 30 μM range for both α7B_M, and α7B_C, and experiments were repeated 4 times, both with the HBS buffer described above (containing 1 mM MgCl2) and with further addition of 2 mM CaCl2. Flow rate was set to 20 μl min−1 in all binding experiments, and the dissociation […]
Figure S1: DLS measurements of the SEC collected peaks. CIB2 band A2 (A), Rec (B) and CaM (C). Each data set consisted of 15-30 measurements (grey lines), with 13-15 repetitions each. Colored lines are referred to the average distribution. Temperature was set to 37°C and samples were equilibrated for 2 min before measurements.
Figure S2: Time-resolved proteolysis experiments. […]

[2] = Analytical size exclusion chromatography; format: physicochemical; details: analytical SEC, 20 mM HEPES pH 7.4, 150 mM KCl, 1 mM DTT, 1 mM Mg^2+, 2 mM Ca^2+; CIB2 ∼70 µM (A2 band), Rec ∼80 µM, CaM ∼110 µM
Procedure: The molecular weight (MW) of the proteins was determined before and after DSBU-modification as previously described[7] in the same buffer (20 mM HEPES, pH 7.5, 1 mM DTT, 1 mM Mg^2+ and 2 mM Ca^2+). […] Standard calibration curve for MW estimation was the same used in our previous study.

[3] = system: Rec; details: presence of Ca^2+; cited from earlier work
Source text: Solvation of their large hydrophobic surfaces might influence the intera ...

B1: Rec: bovine Rec, Ca^2+-sensor protein (protein, UniProt P21457 2-202, looked up)
Recoverin: GNSKSGALSKEILEELQLNTKFTEEELSSWYQSFLKECPSGRITRQEFQTIYSKFFPEADPKAYAQHVFRSFDANSDGTLDFKEYVIALHMTSAGKTNQKLEWAFSLYDVDGNGTISKNEVLEIVTAIFKMISPEDTKHLPEDENTPEKRAEKIWGFFGKKDDDKLTEKEFIEGTLANKEILRLIQFEPQKVKEKLKEKKL
DLS Ø hydrodynamic diameter [1]: 5.0 ± 0.1 nm
MW^SEC [2]: 33.5 kDa
concentration above which dimers were isolated [3]: above 100 μM
